Assay results as given in PMC549567.
Where two headings read alike, the source gives them in different places.

T1: MutS (Escherichia coli, UniProt P23909 1-853)
T1 sequence: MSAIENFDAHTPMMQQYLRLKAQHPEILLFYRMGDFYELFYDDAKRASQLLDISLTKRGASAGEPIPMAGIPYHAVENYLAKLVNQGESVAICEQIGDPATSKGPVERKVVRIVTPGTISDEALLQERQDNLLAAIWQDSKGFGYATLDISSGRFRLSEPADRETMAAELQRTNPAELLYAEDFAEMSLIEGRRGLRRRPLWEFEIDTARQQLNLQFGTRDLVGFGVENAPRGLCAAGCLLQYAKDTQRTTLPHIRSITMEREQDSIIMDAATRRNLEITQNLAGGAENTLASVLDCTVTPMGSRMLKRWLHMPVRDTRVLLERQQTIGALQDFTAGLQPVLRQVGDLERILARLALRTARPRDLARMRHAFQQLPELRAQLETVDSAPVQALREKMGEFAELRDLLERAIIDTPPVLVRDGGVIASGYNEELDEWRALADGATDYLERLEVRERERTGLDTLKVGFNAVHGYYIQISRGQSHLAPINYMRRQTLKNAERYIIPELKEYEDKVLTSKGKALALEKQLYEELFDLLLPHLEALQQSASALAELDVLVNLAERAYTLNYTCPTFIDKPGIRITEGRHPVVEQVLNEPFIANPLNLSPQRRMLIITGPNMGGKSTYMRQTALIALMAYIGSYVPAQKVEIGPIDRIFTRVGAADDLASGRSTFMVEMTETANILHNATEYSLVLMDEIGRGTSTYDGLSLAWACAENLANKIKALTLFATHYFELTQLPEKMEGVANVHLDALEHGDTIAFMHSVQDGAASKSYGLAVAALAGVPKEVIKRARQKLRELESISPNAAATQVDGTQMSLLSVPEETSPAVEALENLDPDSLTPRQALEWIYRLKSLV

T2: MutSΔ800 (Escherichia coli, UniProt P23909 1-800, del801-853)
T2 sequence: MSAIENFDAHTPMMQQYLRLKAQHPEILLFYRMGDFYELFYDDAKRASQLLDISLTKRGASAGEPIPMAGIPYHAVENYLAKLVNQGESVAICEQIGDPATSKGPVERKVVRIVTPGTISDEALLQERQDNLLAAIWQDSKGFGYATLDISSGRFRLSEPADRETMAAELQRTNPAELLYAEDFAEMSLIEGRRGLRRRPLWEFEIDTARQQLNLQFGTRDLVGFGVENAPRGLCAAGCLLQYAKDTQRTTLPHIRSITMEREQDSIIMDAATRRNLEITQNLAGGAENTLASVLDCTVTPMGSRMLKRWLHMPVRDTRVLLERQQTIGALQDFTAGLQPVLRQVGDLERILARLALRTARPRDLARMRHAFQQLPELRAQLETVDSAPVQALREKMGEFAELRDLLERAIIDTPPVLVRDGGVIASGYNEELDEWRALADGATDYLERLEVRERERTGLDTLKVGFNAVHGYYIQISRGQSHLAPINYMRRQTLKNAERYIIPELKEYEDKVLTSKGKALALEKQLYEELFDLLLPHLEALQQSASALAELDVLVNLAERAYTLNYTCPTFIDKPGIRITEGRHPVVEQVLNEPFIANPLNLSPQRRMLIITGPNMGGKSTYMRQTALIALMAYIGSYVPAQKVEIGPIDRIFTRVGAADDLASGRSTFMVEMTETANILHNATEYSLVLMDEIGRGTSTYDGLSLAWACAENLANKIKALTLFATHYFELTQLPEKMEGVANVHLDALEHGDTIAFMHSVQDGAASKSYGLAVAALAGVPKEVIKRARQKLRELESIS

B1: Xlink unplatinated homoduplex GG-CC (dsDNA)
DNA 1: CCTCTCCTTGGTCTTCTCCTCTCC
DNA 2: GGAGAGGAGAAGACCAAGGAGAGG
B2: Xlink platinated GG-CC (dsDNA)
DNA 1: CCTCTCCTTGGTCTTCTCCTCTCC
DNA 2: GGAGAGGAGAAGACCAAGGAGAGG
modifications: cisplatin intrastrand 1,2-GG cross-link at G10-G11 of strand 1
B3: O6-meG-C duplex (dsDNA)
DNA 1: ATACGGAAGTTAAAGTGCGGATCATCTCTAG
DNA 2: CTAGAGATGATCCGCACTTTAACTTCCGTAT
modifications: O6-methylguanine at G17 of strand 1

Key:
Test in all cases: EMSA
MutS [1] = target: T1, MutS
MutSΔ800 [2] = target: T2, MutSΔ800
MutS [3] = target: T1, MutS; remark: listed apart in the source
MutSΔ800 [4] = target: T2, MutSΔ800; remark: listed apart in the source

Row | Binder | binding result (MutS [1]) | binding result (MutSΔ800 [2]) | binding result (MutS [3]) | binding result (MutSΔ800 [4])
1 | B1 | no binding | no binding |  | 
2 | B2 | binds | no binding |  | 
3 | B3 |  |  | binds | binds
